{"source": "patent US20110190142A1", "about": "“DETERMINATION OF RENIN-PRORENIN RECEPTOR ACTIVITY” (Charite- Universitatsmedizin Berlin, priority 2006, published 2011)", "molecules": {"B1": {"name": "prorenin (ligand, UniProt P00797 24-406, looked up, species assumed)", "pro-form": "LPTDTTTFKRIFLKRMPSIRESLKERGVDMARLGPEWSQPMKRLTLGNTTSSVILTNYMDTQYYGEIGIGTPPQTFKVVFDTGSSNVWVPSSKCSRLYTACVYHKLFDASDSSSYKHNGTELTLRYSTGTVSGFLSQDIITVGGITVTQMFGEVTEMPALPFMLAEFDGVVGMGFIEQAIGRVTPIFDNIISQGVLKEDVFSFYYNRDSENSQSLGGQIVLGGSDPQHYEGNFHYINLIKTGVWQIQMKGVSVGSSTLLCEDGCLALVDTGASYISGSTSSIEKLMEALGAKKRLFDYVVKCNEGPTLPDISFHLGGKEYTLTSADYVFQESYSSKKLCTLAIHAMDIPPPTGPTWALGATFIRKFYTEFDRRNNRIGFALAR", "modifications": "pro-form"}, "B2": {"name": "RER promoter PLZF element, native (dsDNA)", "DNA 1": "CTTAACTACAGTTTTCACTGG", "DNA 2": "CCAGTGAAAACTGTAGTTAAG"}}, "key": {"[1]": {"test_system": "renin/prorenin receptor (RER)", "test": "Renin- and prorenin-mediated RER activation (RER-PLZF pathway) in HEK293 cells with aliskiren or siRNA", "format": "cell-based, human", "description": "(§1) For all cell culture studies immortalized human epithelial kidney cells (HEK293 cells) were used. […] Additional inhibition with 1 μM aliskiren was performed as indicated. 1 hour after pre-treatment with losartan±aliskiren cells were stimulated with either 5 nM renin, 5 nM prorenin, or the respective vehicle. Cells were harvested for mRNA expression analysis or determination of viable cell number and apoptosis after 3 or 24 hours, respectively. These experimental procedures have been described in detail previously (Schefe et al., 2006). All experiments were performed in independent triplicates."}, "RER protein": {"test_system": "RER protein", "test": "Down-regulation of RER protein by siRNA (Western blot, densitometry)", "format": "cell-based, human", "conditions": "Western blot of total cell lysate", "description": "For analysis of subcellular localization of RER, 9 μg (membrane) and 12 μg (cytosolic) protein were loaded per lane, separated in a 10% SDS-PAGE and transferred to a nitrocellulose membrane. Western blot analysis was performed with an antibody against human RER (corresponding ATP6AP2; goat polyclonal, ab5959, Abcam, Cambridge, UK) at a dilution of 0.5 μg/ml. Horseradish peroxidase-conjugated anti-goat antibody (rabbit polyclonal; 1:2,500; DAKO, Hamburg, Germany) was used as secondary antibody.\nFor PLZF translocation experiments HEK293 cells were seeded on day 1 in 6-well plates. 250 ng of pCEP4-PLZF-myc expression vector per well were transfected on day 2 at 40-60% confluency using GeneJuice (Merck Biosciences, Bad Soden, Germany) according to the manufacturer's protocol. On day 3 the cells were transfected with 50 nM siRNA against the RER [5′-GCUCCGUAAUCGCCUGUUU (sense strand), (SEQ ID No. 38); 5′-AAACAGGCGAUUACGGAGC (antisense strand), (SEQ ID No. 39)] or GFP control siRNA (Eurogentec, Seraing, Belgium) using jetSI-ENDO (Eurogentec) following the standard procedure. […] Chemoluminescence was detected with ECL (Amersham, München, Germany), and subsequent exposition to Hyperfilm (Amersham)."}, "[2]": {"test_system": "renin/prorenin receptor (RER)", "test": "PI3K-p85α mRNA by quantitative real-time PCR after renin/prorenin stimulation of HEK293 cells", "format": "cell-based, human", "description": "(§2) HEK293 cells were seeded in 24-well plates and transfected with either 100 ng of pCEP4-PLZF-myc expression vector, 50 ng of indicated pGL3-basic construct and 10 ng of phRL-null plasmid (for luciferase assay), or 100 ng of pCEP4-PLZF-myc alone (for PCR experiments) per well as described above. siRNA transfection, renin stimulation and determination of reporter activity were performed as described above, except for an exceeded renin stimulation period of 3 hours.\n(§3) RNA isolation and cDNA synthesis were performed as described above. qPCR was performed applying a SYBR Green I reaction mix and run on a Stratagene Mx3000P (Stratagene, La Jolla, Calif., USA) using the following primers: […]\n(§4) Data represents the mean expression level±standard deviation (standardized to 18S rRNA expression) calculated according to the ddCT method of at least three independent measurements. Equality of PCR efficiencies has been verified applying the program LinRegPCR (Ramakers et al. 2003) and ANOVA testing.\nas §1"}, "[3]": {"test_system": "renin/prorenin receptor (RER)", "test": "PI3K-p85α promoter luciferase reporter assay under renin stimulation", "format": "cell-based, human", "conditions": "PLZF-overexpressing HEK293 cells", "description": "The indicated cell types were seeded on day 1 in 12-well plates. 100 ng of indicated pGL3-basic constructs (encoding firefly luciferase) and 20 ng of phRL-null plasmid (encoding humanized Renilla luciferase for standardization of promoter activity; Promega) per well were transfected on day 2 at 60-80% confluency using GeneJuice (Merck Biosciences, Bad Soden, Germany) according to the manufacturer's protocol. Cells were harvested 48 hours after transfection using Passive Lysis Buffer (Promega). Reporter activities were measured in a Pharmingen Monolight 3010 luminometer (BD Biosciences, Erembodegem, Belgium) using the Dual-Luciferase Reporter Assay System (Promega). Promoter activity is expressed as relative luciferase activity (RLA) (Funke-Kaiser et al., 2003a). RLA data represent the mean±standard deviation of at least three single, parallel transfection experiments.\nas §2"}, "RER mRNA": {"test_system": "RER mRNA", "test": "Down-regulation of RER mRNA by siRNA (real-time PCR)", "format": "cell-based, human", "conditions": "HEK293 cells", "description": "For PLZF translocation experiments HEK293 cells were seeded on day 1 in 6-well plates. 250 ng of pCEP4-PLZF-myc expression vector per well were transfected on day 2 at 40-60% confluency using GeneJuice (Merck Biosciences, Bad Soden, Germany) according to the manufacturer's protocol. On day 3 the cells were transfected with 50 nM siRNA against the RER [5′-GCUCCGUAAUCGCCUGUUU (sense strand), (SEQ ID No. 38); 5′-AAACAGGCGAUUACGGAGC (antisense strand), (SEQ ID No. 39)] or GFP control siRNA (Eurogentec, Seraing, Belgium) using jetSI-ENDO (Eurogentec) following the standard procedure. On day 5, after 24 hours of starving in serum-free medium, cells were stimulated with 10 nM human recombinant renin (mammalian expression; kind gift from Dominik N. Müller, MDC Berlin) or vehicle (0.1% DMSO in PBS) for 2 hours. Western blot was performed with anti-c-myc antibody (mouse monoclonal, 9B11; 1:2,000; Cell Signalling) and horseradish peroxidase-conjugated anti-mouse antibody (rabbit polyclonal; 1:2,500; DAKO). Chemoluminescence was detected with ECL (Amersham, München, Germany), and subsequent exposition to Hyperfilm (Amersham). […]"}, "HEK293 cells [4]": {"test_system": "HEK293 cells", "test": "Caspase 3/7 activity as a measure of apoptosis", "format": "cell-based, human", "description": "as §1"}, "HEK293 cells [5]": {"test_system": "HEK293 cells", "test": "Number of viable cells (ATP concentration)", "format": "cell-based, human", "description": "as §1"}, "[6]": {"test_system": "renin/prorenin receptor (RER)", "test": "RER mRNA by quantitative real-time PCR after renin/prorenin stimulation of HEK293 cells", "format": "cell-based, human", "description": "as §2, §3, §4, §1"}, "[7]": {"molecular_target": "endogenous human RER of HEK293 cells (human) (UniProt O75787)", "sequence (O75787 17-350)": "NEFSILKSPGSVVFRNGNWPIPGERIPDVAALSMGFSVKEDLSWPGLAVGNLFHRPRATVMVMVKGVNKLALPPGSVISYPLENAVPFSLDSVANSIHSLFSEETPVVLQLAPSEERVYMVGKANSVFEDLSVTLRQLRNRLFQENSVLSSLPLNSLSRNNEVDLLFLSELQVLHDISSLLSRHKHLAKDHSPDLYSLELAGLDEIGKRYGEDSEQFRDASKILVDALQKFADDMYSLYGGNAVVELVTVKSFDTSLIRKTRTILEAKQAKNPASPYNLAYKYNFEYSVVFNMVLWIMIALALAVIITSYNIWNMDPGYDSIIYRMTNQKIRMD", "test": "cell-based or functional assay"}, "[8]": {"molecular_target": "T1, PLZF (promyelocytic zinc finger protein, ZBTB16), endogenous (Homo sapiens, UniProt Q05516 Q05516:1-673)", "T1 sequence": "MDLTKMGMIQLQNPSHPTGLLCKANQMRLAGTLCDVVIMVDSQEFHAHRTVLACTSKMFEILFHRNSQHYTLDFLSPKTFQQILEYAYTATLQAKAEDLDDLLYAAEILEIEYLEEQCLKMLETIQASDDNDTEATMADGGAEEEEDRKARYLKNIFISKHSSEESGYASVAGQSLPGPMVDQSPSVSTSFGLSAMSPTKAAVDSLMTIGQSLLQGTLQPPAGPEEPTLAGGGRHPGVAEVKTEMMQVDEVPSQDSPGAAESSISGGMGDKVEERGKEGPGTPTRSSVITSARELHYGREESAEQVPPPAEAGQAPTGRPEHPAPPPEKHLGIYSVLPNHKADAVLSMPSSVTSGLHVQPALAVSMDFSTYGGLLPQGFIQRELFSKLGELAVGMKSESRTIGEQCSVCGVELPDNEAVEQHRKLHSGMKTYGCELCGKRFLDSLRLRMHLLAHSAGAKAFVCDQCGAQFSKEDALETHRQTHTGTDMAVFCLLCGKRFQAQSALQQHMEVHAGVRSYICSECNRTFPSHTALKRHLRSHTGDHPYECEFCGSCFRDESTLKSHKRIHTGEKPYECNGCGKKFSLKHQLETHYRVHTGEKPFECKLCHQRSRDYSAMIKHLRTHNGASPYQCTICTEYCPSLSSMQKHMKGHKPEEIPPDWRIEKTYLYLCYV", "test": "ChIP-qPCR in HEK293; about 6-fold increased recruitment to the RER promoter region around the element after renin vs vehicle", "conditions": "tags: none (endogenous, HEK293)"}, "[9]": {"conditions": "HEK293 cells transfected with scrambled control siRNA"}, "[10]": {"conditions": "HEK293 cells, 5 nM, 3 hours, 1 μM losartan pre-treatment"}}, "data": [{"molecule": "COCCCOc1cc(C[C@@H](C[C@H](N)[C@@H](O)C[C@H](C(=O)NCC(C)(C)C(N)=O)C(C)C)C(C)C)ccc1OC", "note": "[aliskiren]", "values": [{"measurement": "influence on the effects of renin and prorenin (RER and PI3K-p85α transcription, proliferation, apoptosis)", "setting": "[1]; pre-treatment with 1 μM aliskiren", "value": "not affected"}]}, {"molecule": "siRNA against the RER: siRNA 5′-GCUCCGUAAUCGCCUGUUU (sense), 5′-AAACAGGCGAUUACGGAGC (antisense), SEQ ID No. 38/39 (listed as RNA, chemistry not given here; listed as Homo sapiens)", "values": [{"measurement": "RER protein reduced to (densitometric measurement, compared to control)", "setting": "RER protein", "value": "less than 10%"}, {"measurement": "influence on transcriptional and cellular effects of prorenin stimulation", "setting": "[1]; siRNA 24 hours before prorenin", "value": "completely abolished"}, {"measurement": "influence on renin induction of PI3K-p85α mRNA", "setting": "[2]; HEK293 cells, regardless of PLZF expression level", "value": "abolished this induction"}, {"measurement": "influence on renin-induced increase in PI3K-p85α promoter activity", "setting": "[3]", "value": "abolished"}, {"measurement": "RER mRNA repressed to", "setting": "RER mRNA; 50 nM siRNA", "value": "29.8±5.2", "unit": "%"}, {"measurement": "average reduction of RER mRNA", "setting": "RER mRNA; siRNA transfected 24 hours before stimulation", "value": "81.1±4.5", "unit": "%"}]}, {"molecule": "B1", "values": [{"measurement": "attenuation of caspase 3/7 activity", "setting": "HEK293 cells [4]; [9]", "value": 53.4, "unit": "%"}, {"measurement": "reduction of caspase 3/7 activity", "setting": "HEK293 cells [4]; HEK293 cells, 5 nM, 24 hours", "value": 35.7, "unit": "%"}, {"measurement": "increase of viable cell number", "setting": "HEK293 cells [5]; [9]", "value": 87.5, "unit": "%"}, {"measurement": "increase of viable cell number compared to vehicle", "setting": "HEK293 cells [5]; HEK293 cells, 5 nM, 24 hours", "value": 123.8, "unit": "%"}, {"measurement": "PI3K-p85α mRNA, % of vehicle control", "setting": "[2]; [9]", "value": 212.8, "unit": "%"}, {"measurement": "PI3K-p85α mRNA, % of vehicle control", "setting": "[2]; [10]", "value": 175.8, "unit": "%"}, {"measurement": "RER mRNA, % of vehicle control", "setting": "[6]; [9]", "value": 59.7, "unit": "%"}, {"measurement": "RER mRNA, % of vehicle control", "setting": "[6]; [10]", "value": 63.6, "unit": "%"}, {"measurement": "PI3K-p85α mRNA after 3 hours, 5 nM prorenin, HEK293 cells (% of vehicle control)", "setting": "[7]", "value": 176}, {"measurement": "PI3K-p85α mRNA, prorenin, HEK293 cells with scrambled control siRNA (% of vehicle control)", "setting": "[7]", "value": 213}, {"measurement": "RER mRNA after 3 hours, 5 nM prorenin, HEK293 cells (% of vehicle control)", "setting": "[7]", "value": 63.6}, {"measurement": "RER mRNA, prorenin, HEK293 cells with scrambled control siRNA (% of vehicle control)", "setting": "[7]", "value": 59.7}, {"measurement": "caspase 3/7 activity after 24 hours, 5 nM prorenin, HEK293 cells", "setting": "[7]", "value": 35.7, "unit": "% decrease"}, {"measurement": "caspase 3/7 activity, prorenin, HEK293 cells with scrambled control siRNA", "setting": "[7]", "value": 53.4, "unit": "% decrease"}, {"measurement": "viable cell number after 24 hours, 5 nM prorenin, HEK293 cells", "setting": "[7]", "value": 124, "unit": "% increase"}, {"measurement": "viable cell number, prorenin, HEK293 cells with scrambled control siRNA", "setting": "[7]", "value": 87.5, "unit": "% increase"}]}, {"molecule": "B2", "values": [{"measurement": "binding signal", "setting": "[8]", "value": 6, "unit": "fold"}]}]}
